The data set has as its target APOBEC3A wild-type (Homo sapiens) (UniProt P31941). The following applies: 5-nitroindole at positions 12-14; deamination activity.

Sequence of APOBEC3A wild-type (Homo sapiens) (P31941 whole entry): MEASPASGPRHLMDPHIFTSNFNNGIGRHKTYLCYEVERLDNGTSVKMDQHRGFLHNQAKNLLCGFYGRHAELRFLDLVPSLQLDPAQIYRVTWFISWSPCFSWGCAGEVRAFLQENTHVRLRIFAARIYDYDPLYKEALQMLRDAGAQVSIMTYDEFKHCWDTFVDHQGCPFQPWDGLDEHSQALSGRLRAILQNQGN

Take “AAAAAAAAATCNNNAAAAAAA [+1 to +3 5-nitroindole substrate]”: the binding signal (fold lower than n3) is 2.

The values above are taken from patent US20180170984.
